Experimental data reported in US20170015737A1 (published 2017).

How the values were obtained:
[1] = molecular target: recombinant human TTR F87M/L110M (human, UniProt P02766 21-147); assay: SPR, mAb captured on anti-mouse IgG chip, TTR F87M/L110M as analyte
pH4.0-treated TTR [2] = molecular target: T1, pH4.0-treated TTR (human, UniProt P02766 21-147); assay: ELISA, pH4-TTR captured on anti-His coated plate
pH4.0-treated TTR [3] = molecular target: T1, pH4.0-treated TTR; assay: sandwich ELISA (pH4-TTR)
pH4.0-treated TTR [4] = molecular target: T1, pH4.0-treated TTR; assay: sandwich ELISA on pH4-TTR (the table prints 14.6 for 6C1)

B1: 6C1 (antibody, V domains shown)
VH: EVQLVESGGGLVQPGGSLKLSCAASGFTFSNYYMSWVRQTPEKRLEWVAYISIDGNNIYHPDSVKGRFTISRDNAKNTLYLQMSSLKSEDTAMYYCARDSDYGYFDVWGTGTTVTVSS
VL: DVLMTQTPLSLPVSLGDQASISCRSSQSIVHSNGNTYLEWYLQKRGQSPKLLIYKVSKRFSGVPDRFSGSGSGTDFILKISRVEAEDLGVYYCFQGSHVPLTFGGGTKLELK
Kd [1]: 9.01 nM | koff [1]: 0.000415 s⁻¹ | kon [1]: 46100 M⁻¹ s⁻¹ | Kd (pH4.0-treated TTR [2]): 16 nM | Kd (pH4.0-treated TTR [3]): 14.6 nM | Kd (pH4.0-treated TTR [4]): 14.5 nM
